Blank lines part the entries; values can stand above or below the binder they belong to.
How the values were obtained:
[1] = target: T1, 인간 TIGIT (human TIGIT on cells) (human, UniProt Q495A1 22-244); assay: flow cytometry on artificial effector T cells expressing TIGIT
T1 construct: whole, on cells; also called hTIGIT
T1 sequence (looked up): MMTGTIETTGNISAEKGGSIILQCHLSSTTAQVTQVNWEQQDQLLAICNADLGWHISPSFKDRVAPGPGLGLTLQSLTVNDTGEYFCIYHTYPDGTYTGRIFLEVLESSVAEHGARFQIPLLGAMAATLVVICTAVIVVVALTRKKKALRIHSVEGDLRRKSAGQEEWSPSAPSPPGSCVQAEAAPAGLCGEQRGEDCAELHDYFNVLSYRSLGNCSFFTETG

[2] = target: T2, 재조합 인간 TIGIT-His 단백질 (recombinant human TIGIT-His protein) (human) (UniProt Q495A1); assay: SPR, humanized antibodies; antigen not given
T2 sequence (looked up): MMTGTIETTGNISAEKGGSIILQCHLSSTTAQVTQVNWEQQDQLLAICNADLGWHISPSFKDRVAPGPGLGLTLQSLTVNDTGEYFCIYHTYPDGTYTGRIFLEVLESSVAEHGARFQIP

[3] = target: T2, 재조합 인간 TIGIT-His 단백질 (recombinant human TIGIT-His protein) (human); assay: SPR, chimeric antibodies; antigen not given
[4] = target: T3, 재조합 인간 TIGIT-His 단백질 (recombinant human TIGIT-His protein) (human, UniProt Q495A1 22-141); assay: hybridoma culture medium; 도 1 is flow cytometry on anti-hCD3/28-activated human T cells, the sentence names recombinant human TIGIT-His
T3 construct: All are treated here as one molecule; also called TIGIT-His(Sino); 항원; not shown: His tag
T3 sequence (looked up): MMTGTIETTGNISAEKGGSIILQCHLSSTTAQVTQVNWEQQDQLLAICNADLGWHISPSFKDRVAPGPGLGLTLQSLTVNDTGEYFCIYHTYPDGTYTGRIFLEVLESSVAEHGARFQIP

[5] = target: T1, 인간 TIGIT (human TIGIT on cells); assay: flow cytometry on CD4 and CD8 T cells of anti-hCD3/28-activated human PBMC
[6] = target: T3, 재조합 인간 TIGIT-His 단백질 (recombinant human …); assay: SPR; antigen not given
[7] = target: T3, 재조합 인간 TIGIT-His 단백질 (recombinant human …); assay: ELISA, plate coated with recombinant human TIGIT-His, as in Example 3-(1)
[8] = target: T3, 재조합 인간 TIGIT-His 단백질 (recombinant human …); assay: method not named in the sentence (SPR of Example 7); antigen not given
[9] = target: T3, 재조합 인간 TIGIT-His 단백질 (recombinant human …); assay: ELISA, plate coated with recombinant human TIGIT-His, anti-hIgG-HRP detection

binding result [1]: binds | 결합력, fold higher than humanized clone 19D [2]: 13 배
B1: 인간화 후보항체 clone 63F (antibody, V domains shown)
VH: EVQLVESGGGLVQPGGSLRLSCAASGSTFSNYWMNWVRQAPGKGLEWVAEIRLKFNNYATHYVESVIGRFTISRDDSKNSVYLQMNSLKTEDTAVYYCTMVRRNWYFDVWGRGTLVTVSS
VL: EIVLTQSPATLSLSPGERATLSCSASSSVSSSYLYWYQQKPGLAPRLWIYSTSNLASGIPDRFSGSGSGTDYTLTISRLEPEDFAVYYCHQWSSYPYTFGQGTKLEIK
notes: Humanized; also called 인간화 후보항체 63F; humanized 63F

binding result [1]: binds | 결합력, fold higher than humanized clone 19D [2]: 36 배
B2: 인간화 후보항체 clone 75G (antibody, V domains shown)
VH: EVQLVESGGGLVQPGGSLRLSCAASGVTFSNYWMNWVRQAPGKGLEWVAEIRLKFNDYATHYVESVKGRFTISRDDSKNSVYLQMNSLKTEDTAVYYCTMVRRNWYFDVWGRGTLVTVSS
VL: EIVLTQSPATLSLSPGERATLSCSASSSVSSGYLYWYQQKPGLAPRLWIYSTSDLASGIPDRFSGSGSGTDYTLTISRLEPEDFAVYYCHQWSSYPYTFGQGTKLEIK
notes: Humanized; also called 인간화 후보항체 75G; humanized 75G

결합력, fold higher than the control Oncomed-313M32 antibody [3]: 6 배
B3: chimeric-후보항체 clone 63F (antibody, V domains shown)
VH: EVQLEEFGGGLVQPGGSMKLSCVASGSTFSNYWMNWVRQSPEKGLEWVAEIRLKFNNYATHYVESVIGRFTISRDDSKSSVYLQMNNLRAEDTGIYYCTMVRRNWYFDVWGAGTTVTVSS
VL: QIVLTQSPAIMSAFPGEKVTLTCSASSSVSSSYLYWYQQKPRSSPKLWIYSTSNLASGVPARFSGSGSGTSYSLTISSMEAEDAASYFCHQWSSYPYTFGGGTKLEIK

binding result [4]: binds
B4: clone 75G (hybridoma antibody) (antibody, V domains shown)
VH: EVNLEESGGGLVQPGGSMKLSCVASGVTFSNYWMNWVRQSPEKGLEWVAEIRLKFNDYATHYVESVKGRFTISRDDSESSVYLQMNNLRAEDTGIYYCTMVRRNWYFDVWGAGTTVTVSS
VL: QIVLTQSPAIMSASPGEKVTLTCSASSSVSSGYLYWYQKKPGSSPKLWIYSTSDLASGVPARFSGSGSGTFYSLTISNMEAEDAASYFCHQWSSYPYTFGGGTKLEIK
notes: Mouse hybridoma antibody (culture medium)

binding result [5]: binds | 결합력, fold higher than the control Oncomed-313M32 antibody [3]: 30 배
B5: chimeric-후보항체 clone 75G (antibody, V domains shown)
VH: EVNLEESGGGLVQPGGSMKLSCVASGVTFSNYWMNWVRQSPEKGLEWVAEIRLKFNDYATHYVESVKGRFTISRDDSESSVYLQMNNLRAEDTGIYYCTMVRRNWYFDVWGAGTTVTVSS
VL: QIVLTQSPAIMSASPGEKVTLTCSASSSVSSGYLYWYQKKPGSSPKLWIYSTSDLASGVPARFSGSGSGTFYSLTISNMEAEDAASYFCHQWSSYPYTFGGGTKLEIK
notes: also called chimeric 75G

binding result [1]: binds | 결합력, fold higher than humanized clone 19D [2]: 33 배
B6: 인간화 후보항체 clone 62F (antibody, V domains shown)
VH: QVQLVQSGAEVKKPGASVKVSCKASGFTFTEYTMHWVRQAPGQGLEWIGGFNPNSGGSSYNQKFKGRATLTVDKSISTAYMELSRLRSDDTAVYYCARSSYYRFDLDYWGQGTTVTVSS
VL: DIQMTQSPSSLSASVGDRVTITCKASQDVKTAVAWYQQKPGKAPKLLIYSASFRYTGVPSRFSGSGSGADFTLTISSLQPEDFATYYCQQHYTTPWTFGQGTKVEIK
notes: Humanized; also called 인간화 후보항체 62F; hu62F

binding result [5]: binds | 결합력, fold higher than the control Oncomed-313M32 antibody [3]: 30 배
B7: chimeric-후보항체 clone 62F (antibody, V domains shown)
VH: EVQLQQSGPELVKPGASVKISCKTSGFTFTEYTMHWVKQSHGKSLEWIGGFNPNSGGSSYNQKFKGKATLTVDKSSSTAFMELRSLTSEDSAAYYCARSSYYRFDLDYWGQGTTLTVSS
VL: DIVMTQSHKFMSTSVGDRVSITCKASQDVKTAVAWYQQKPGQSPQLLIYSASFRYTGVPDRFTGSGSGADFTFTISSVQAEDLAAYYCQQHYTTPWTFGGGTKLEIK
notes: also called chimeric 62F

binding result [4]: binds
B8: clone 62F (hybridoma antibody) (antibody, V domains shown)
VH: EVQLQQSGPELVKPGASVKISCKTSGFTFTEYTMHWVKQSHGKSLEWIGGFNPNSGGSSYNQKFKGKATLTVDKSSSTAFMELRSLTSEDSAAYYCARSSYYRFDLDYWGQGTTLTVSS
VL: DIVMTQSHKFMSTSVGDRVSITCKASQDVKTAVAWYQQKPGQSPQLLIYSASFRYTGVPDRFTGSGSGADFTFTISSVQAEDLAAYYCQQHYTTPWTFGGGTKLEIK
notes: Mouse hybridoma antibody

binding result [5]: binds | 결합력, fold higher than the control Oncomed-313M32 antibody [3]: 13 배
B9: chimeric-후보항체 clone 58E (antibody, V domains shown)
VH: EVQLQQSGPELVKPGASVKMSCKASGYTFTSYVMHWVKQKPGQGLEWIGYINLNNDGTKYNEKFKGKATLSSDKSSSTAYMELSSLTSEDSAVYYCARWRVYYYAMDYWGQGTSVTVSS
VL: EIVLTQSPAITAASLGQKVTITCSASSSVNYMHWYQQKSGTSPRPWIYEISKLASGVPARFSGSGSGTSYSLTISSMEAEDAAIYYCQLWNYPLITFGAGTKLELK
notes: also called chimeric 58E; 후보항체 58E

binding result [6]: binds
B10: T21.09 (antibody, V domains shown)
VH: EVQLQQSGPELVKPGASVKMSCKASGYTFTSYVMHWVKQKPGQGLEWIGYINLNNDGTKYNEKFKGKATLSSDKSSSTAYMELSSLTSEDSAVYYCARWRVYYYAMDYWGQGTSVTVSS
VL: EIVLTQSPATLSLSPGERATLSCNASSSVDYVHWYQQKPGQAPRPWIYEISKLASGIPARFSGSGSGTDYTLTISSLEPEDFAVYYCQLWNYPLITFGQGTKVEIK
notes: Gene engineered variant of 58E; also called clone T21.09

binding result [6]: binds
B11: T21.11 (antibody, V domains shown)
VH: QVQLVQSGAEVKKPGASVKVSCKASGYTFTSYVMHWVRQAPGQRLEWIGYINLNNDGTKYNEKFKGRATLTSDKSASTAYMELSSLRSEDTAVYYCARWRVYYYAMDYWGQGTLVTVSS
VL: EIVLTQSPAITAASLGQKVTITCNASSSVDYVHWYQQKSGTSPRPWIYEISKLASGVPARFSGSGSGTSYSLTISSMEAEDAAIYYCQLWNYPLITFGAGTKLELK
notes: Gene engineered variant of 58E: humanized 58E heavy chain, light chain T21L01; also called clone T21.11

binding result [4]: binds
B12: clone 58E (hybridoma antibody) (antibody, V domains shown)
VH: EVQLQQSGPELVKPGASVKMSCKASGYTFTSYVMHWVKQKPGQGLEWIGYINLNNDGTKYNEKFKGKATLSSDKSSSTAYMELSSLTSEDSAVYYCARWRVYYYAMDYWGQGTSVTVSS
VL: EIVLTQSPAITAASLGQKVTITCSASSSVNYMHWYQQKSGTSPRPWIYEISKLASGVPARFSGSGSGTSYSLTISSMEAEDAAIYYCQLWNYPLITFGAGTKLELK
notes: as for B4

binding result [6]: binds
B13: T21.01 (antibody, V domains shown)
VH: EVQLQQSGPELVKPGASVKMSCKASGYTFTSYVMHWVKQKPGQGLEWIGYINLNNDGTKYNEKFKGKATLSSDKSSSTAYMELSSLTSEDSAVYYCARWRVYYYAMDYWGQGTSVTVSS
VL: EIVLTQSPAITAASLGQKVTITCNASSSVDYVHWYQQKSGTSPRPWIYEISKLASGVPARFSGSGSGTSYSLTISSMEAEDAAIYYCQLWNYPLITFGAGTKLELK
notes: Gene engineered variant of 58E; produced in Expi293F; also called clone T21.01

binding result [7]: binds | binding result [1]: binds
B14: 인간화 후보항체 clone 19D (antibody, V domains shown)
VH: QVQLVQSGAEVKKPGASVKVSCKASGYTFSNYVMHWVRQAPGQRLEWIGYINPYNDGTKYNEKFKGRATLTSDRSASTAYMELSSLRSEDTAVYYCARWRVNYYFDYWGQGTLVTVSS
VL: DIQLTQSPSSLSASVGDRVTITCRASSSVNYMHWYQQKPGKAPKAWISVTSNLASGVPSRFSGSGSGTDYTLTISSLQPEDFATYYCQQWSSNPPWTFGQGTKVEIK
notes: Humanized; also called 인간화 후보항체 19D; humanized 19D

binding result [6]: binds
B15: T21.13 (antibody, V domains shown)
VH: QVQLVQSGAEVKKPGASVKVSCKASGYTFTSYVMHWVRQAPGQRLEWIGYINLNNDGTKYNEKFKGRATLTSDKSASTAYMELSSLRSEDTAVYYCARWRVYYYAMDYWGQGTLVTVSS
VL: EIVLTQSPATLSLSPGERATLSCNASSSVDYVHWYQQKPGQAPRPWIYEISKLASGIPARFSGSGSGTDYTLTISSLEPEDFAVYYCQLWNYPLITFGQGTKVEIK
notes: Gene engineered variant of 58E; also called clone T21.13

binding result [8]: binds
B16: T21.33 (antibody, V domains shown)
VH: QVQLVQSGAEVKKPGASVKVSCKASGYTFTSYVMHWVRQAPGQRLEWIGYINLNNDGTKYNEKFKGRATLTSDKSASTAYMELSSLRSEDTAVYYCARWRVYYYAMDYWGQGTLVTVSS
VL: EIVLTQSPATLSLSPGERATLSCNASSSVDYVHWYQQKPGQAPRPWIYEISKLASGIPARFSGSGSGTSYTLTISSLEPEDFAVYYCQLWNYPLITFGQGTKVEIK
notes: also called clone T21.33

binding result [9]: binds
B17: chimeric-후보항체 clone 19D (antibody, V domains shown)
VH: EVQLQQSGPELVKPGASVKMSCKASGYTFSNYVMHWVKQKPGQGLEWIGYINPYNDGTKYNEKFKGKATLTSDRSSSTAYMELSSLTSEDSAVYYCARWRVNYYFDYWGQGTTLTVSS
VL: QIVLSQSPAILSASPGEKVTMTCRASSSVNYMHWYQQKPGSSPKAWISVTSNLASGVPARFSGSGSGTSYSLTISRVEAEDAATYYCQQWSSNPPWTFGGGTKLEIK
notes: Produced in Expi293; also called chimeric 19D

Reference: patent KR20220082776A (dated 2022)
